Experimental data: IntAct's records for PubMed 17719540

B1: Type 3 secretion system translocon protein SctE (Shigella flexneri), P18011 (parent)
chain: MHNVSTTTTGFPLAKILTSTELGDNTIQAANDAANKLFSLTIADLTANQNINTTNAHSTSNILIPELKAPKSLNASSQLTLLIGNLIQILGEKSLTALTNKITAWKSQQQARQQKNLEFSDKINTLLSETEGLTRDYEKQINKLKNADSKIKDLENKINQIQTRLSELDPESPEKKKLSREEIQLTIKKDAAVKDRTLIEQKTLSIHSKLTDKSMQLEKEIDSFSAFSNTASAEQLSTQQKSLTGLASVTQLMATFIQLVGKNNEESLKNDLALFQSLQESRKTEMERKSDEYAAEVRKAEELNRVMGCVGKILGALLTIVSVVAAAFSGGASLALAAVGLALMVTDAIVQAATGNSFMEQALNPIMKAVIEPLIKLLSDAFTKMLEGLGVDSKKAKMIGSILGAIAGALVLVAAVVLVATVGKQAAAKLAENIGKIIGKTLTDLIPKFLKNFSSQLDDLITNAVARLNKFLGAAGDEVISKQIISTHLNQAVLLGESVNSATQAGGSVASAVFQNSASTNLADLTLSKYQVEQLSKYISEAIEKFGQLQEVIADLLASMSNSQANRTDVAKAILQQTTA

Variants of: B1
Conditions: with md2l2_human MAD2L2, Q9UI95
Sequence of md2l2_human MAD2L2, Q9UI95 (Q9UI95 whole entry): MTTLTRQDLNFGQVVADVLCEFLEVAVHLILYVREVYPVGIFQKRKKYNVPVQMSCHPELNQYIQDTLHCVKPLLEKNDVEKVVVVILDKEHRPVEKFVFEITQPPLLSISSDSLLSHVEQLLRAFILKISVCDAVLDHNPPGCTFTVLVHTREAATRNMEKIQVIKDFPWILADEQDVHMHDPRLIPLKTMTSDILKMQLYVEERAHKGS

Q: With MHNVSTTTTGFPLAKILTSTELGDNTIQAANDAANKLFSLTIADLTANQNINTTNAHSTSAILIPELKAPKSLNASSQLTLLIGNLIQILGEKSLTALTNKITAWKSQQQARQQKNLEFSDKINTLLSETEGLTRDYEKQINKLKNADSKIKDLENKINQIQTRLSELDPESPEKKKLSREEIQLTIKKDAAVKDRTLIEQKTLSIHSKLTDKSMQLEKEIDSFSAFSNTASAEQLSTQQKSLTGLASVTQLMATFIQLVGKNNEESLKNDLALFQSLQESRKTEMERKSDEYAAEVRKAEELNRVMGCVGKILGALLTIVSVVAAAFSGGASLALAAVGLALMVTDAIVQAATGNSFMEQALNPIMKAVIEPLIKLLSDAFTKMLEGLGVDSKKAKMIGSILGAIAGALVLVAAVVLVATVGKQAAAKLAENIGKIIGKTLTDLIPKFLKNFSSQLDDLITNAVARLNKFLGAAGDEVISKQIISTHLNQAVLLGESVNSATQAGGSVASAVFQNSASTNLADLTLSKYQVEQLSKYISEAIEKFGQLQEVIADLLASMSNSQANRTDVAKAILQQTTA [N61A] as the variant, how does the “effect of a mutation on the interaction” value read?
A: Its value is “decreasing interaction”.

Variants of: B1
Conditions: with ipgc_shifl ipgC

Q: With MHNVSTTTTGFPLAKILTSTELGDNTIQAANDAANKLFSLTIADLTANQNINTTNAHSTSNILIPEAKAPKSLNASSQLTLLIGNLIQILGEKSLTALTNKITAWKSQQQARQQKNLEFSDKINTLLSETEGLTRDYEKQINKLKNADSKIKDLENKINQIQTRLSELDPESPEKKKLSREEIQLTIKKDAAVKDRTLIEQKTLSIHSKLTDKSMQLEKEIDSFSAFSNTASAEQLSTQQKSLTGLASVTQLMATFIQLVGKNNEESLKNDLALFQSLQESRKTEMERKSDEYAAEVRKAEELNRVMGCVGKILGALLTIVSVVAAAFSGGASLALAAVGLALMVTDAIVQAATGNSFMEQALNPIMKAVIEPLIKLLSDAFTKMLEGLGVDSKKAKMIGSILGAIAGALVLVAAVVLVATVGKQAAAKLAENIGKIIGKTLTDLIPKFLKNFSSQLDDLITNAVARLNKFLGAAGDEVISKQIISTHLNQAVLLGESVNSATQAGGSVASAVFQNSASTNLADLTLSKYQVEQLSKYISEAIEKFGQLQEVIADLLASMSNSQANRTDVAKAILQQTTA [L67A] as the variant, how does the “effect of a mutation on the interaction” value read?
A: The value was “decreasing interaction”.
